# Results reported in PMC6754429, “Structure of full-length wild-type human phenylalanine hydroxylase by small angle X-ray scattering reveals substrate-induced conformational stability” (Scientific Reports, 2019).
# B1: Recombinant full-length wild-type human phenylalanine hydroxylase (His6-hPAH) (enzyme, UniProt P00439 1-452, looked up)
# chain: MSTAVLENPGLGRKLSDFGQETSYIEDNCNQNGAISLIFSLKEEVGALAKVLRLFEENDVNLTHIESRPSRLKKDEYEFFTHLDKRSLPALTNIIKILRHDIGATVHELSRDKKKDTVPWFPRTIQELDRFANQILSYGAELDADHPGFKDPVYRARRKQFADIAYNYRHGQPIPRVEYMEEEKKTWGTVFKTLKSLYKTHACYEYNHIFPLLEKYCGFHEDNIPQLEDVSQFLQTCTGFRLRPVAGLLSSRDFLGGLAFRVFHCTQYIRHGSKPMYTPEPDICHELLGHVPLFSDRSFAQFSQEIGLASLGAPDEYIEKLATIYWFTVEFGLCKQGDSIKAYGAGLLSSFGELQYCLSEKPKLLPLELEKTAIQNYTVTEFQPLYYVAESFNDAKEKVRNFAATIPRPFSVRYDPYTQRIEVLDNTQQLKILADSINSEIGILCSALQKIK
# notes: human phenylalanine hydroxylase, full-length wild type; The same protein was measured without L-Phe (hPAH^free) and with 1 mM L-Phe (hPAH^Phe); also called hPAH^free; hPAH^Phe; source: E. coli Top10 (pTrcHis-hPAH plasmid), purified (Ni-NTA; PD-10 into SEC buffer, then the beamline SEC column); not shown: His6 (with a 26-amino acid linker), N-terminal, kept
# Target: the molecule itself
# Test: SEC-SAXS; Shodex KW-404 column coupled to SAXS (B21, Diamond); 12 mg/mL hPAH injected; 20 mM Hepes pH 7.0, 200 mM NaCl; 20 °C; no L-Phe (hPAH^free); molecular mass from the Porod volume
protein,measurement,value
B1,stoichiometry N,4
